From patent US20250313635A1, “ANTI-INTEGRIN ANTIBODIES AND USES THEREOF” (Merck Sharp & Dohme LLC, priority 2022, published 2025)

Tests used:
[1] = molecular target: human Fibronectin (R&D Systems 1918-FN) (human) (UniProt P02751); test: AlphaLISA integrin-ligand binding, ligand at 1.0 nM
[2] = molecular target: human Vitronectin-GST tagged (EMD Millipore 08-126) (human) (UniProt P04004); test: AlphaLISA integrin-ligand binding, ligand at 10.0 nM
[3] = molecular target: human Vitronectin-GST tagged (EMD Millipore 08-126) (human) (UniProt P04004); test: AlphaLISA integrin-ligand binding, ligand at 1.0 nM
[4] = molecular target: human LAP (R&D system 246-LP) (human) (UniProt P01137); test: AlphaLISA integrin-ligand binding, ligand at 0.5 nM
[5] = molecular target: human LAP (R&D system 246-LP) (human) (UniProt P01137); test: AlphaLISA integrin-ligand binding, ligand at 3.0 nM
[6] = molecular target: mouse fibronectin (Abcam ab92784) (mouse) (UniProt P11276); test: AlphaLISA integrin-ligand binding, ligand at 2.5 nM
[7] = molecular target: mouse fibronectin (Abcam ab92784) (mouse) (UniProt P11276); test: AlphaLISA integrin-ligand binding, ligand at 1.0 nM
[8] = molecular target: mouse Vitronectin (Abcam ab92727) (mouse) (UniProt P29788); test: AlphaLISA integrin-ligand binding, ligand at 5.0 nM
Chain of mouse Vitronectin (Abcam ab92727) (mouse) (P29788 20-478 limits assumed): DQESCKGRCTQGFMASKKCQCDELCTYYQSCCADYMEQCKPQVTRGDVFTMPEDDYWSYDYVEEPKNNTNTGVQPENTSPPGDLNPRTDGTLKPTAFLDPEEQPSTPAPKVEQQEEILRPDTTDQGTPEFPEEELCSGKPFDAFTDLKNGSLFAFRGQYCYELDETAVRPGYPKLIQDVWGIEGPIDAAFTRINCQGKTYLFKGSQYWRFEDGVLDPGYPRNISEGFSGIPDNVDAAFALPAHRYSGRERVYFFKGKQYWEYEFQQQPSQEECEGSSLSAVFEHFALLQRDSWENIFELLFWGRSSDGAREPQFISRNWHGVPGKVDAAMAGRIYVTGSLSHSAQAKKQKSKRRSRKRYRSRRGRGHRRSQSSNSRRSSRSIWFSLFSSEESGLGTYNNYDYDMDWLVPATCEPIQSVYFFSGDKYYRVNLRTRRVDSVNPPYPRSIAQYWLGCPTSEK

[9] = molecular target: mouse Vitronectin (Abcam ab92727) (mouse) (UniProt P29788); test: AlphaLISA integrin-ligand binding, ligand at 2.5 nM
[10] = molecular target: mouse LAP-6His (Chem partner) (mouse) (UniProt P04202); test: as above
Chain of mouse LAP-6His (Chem partner) (mouse) (P04202 30-278 limits assumed): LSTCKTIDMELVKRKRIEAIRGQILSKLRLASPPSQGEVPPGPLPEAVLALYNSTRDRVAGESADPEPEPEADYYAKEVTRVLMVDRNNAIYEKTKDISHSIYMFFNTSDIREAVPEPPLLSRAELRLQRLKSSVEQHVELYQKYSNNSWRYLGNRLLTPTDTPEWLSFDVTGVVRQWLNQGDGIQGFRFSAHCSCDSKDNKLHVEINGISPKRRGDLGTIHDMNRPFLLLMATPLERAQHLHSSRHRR

Chain of human Fibronectin (R&D Systems 1918-FN) (human) (P02751 other isoform, or with tags, fused parts or gaps limits assumed): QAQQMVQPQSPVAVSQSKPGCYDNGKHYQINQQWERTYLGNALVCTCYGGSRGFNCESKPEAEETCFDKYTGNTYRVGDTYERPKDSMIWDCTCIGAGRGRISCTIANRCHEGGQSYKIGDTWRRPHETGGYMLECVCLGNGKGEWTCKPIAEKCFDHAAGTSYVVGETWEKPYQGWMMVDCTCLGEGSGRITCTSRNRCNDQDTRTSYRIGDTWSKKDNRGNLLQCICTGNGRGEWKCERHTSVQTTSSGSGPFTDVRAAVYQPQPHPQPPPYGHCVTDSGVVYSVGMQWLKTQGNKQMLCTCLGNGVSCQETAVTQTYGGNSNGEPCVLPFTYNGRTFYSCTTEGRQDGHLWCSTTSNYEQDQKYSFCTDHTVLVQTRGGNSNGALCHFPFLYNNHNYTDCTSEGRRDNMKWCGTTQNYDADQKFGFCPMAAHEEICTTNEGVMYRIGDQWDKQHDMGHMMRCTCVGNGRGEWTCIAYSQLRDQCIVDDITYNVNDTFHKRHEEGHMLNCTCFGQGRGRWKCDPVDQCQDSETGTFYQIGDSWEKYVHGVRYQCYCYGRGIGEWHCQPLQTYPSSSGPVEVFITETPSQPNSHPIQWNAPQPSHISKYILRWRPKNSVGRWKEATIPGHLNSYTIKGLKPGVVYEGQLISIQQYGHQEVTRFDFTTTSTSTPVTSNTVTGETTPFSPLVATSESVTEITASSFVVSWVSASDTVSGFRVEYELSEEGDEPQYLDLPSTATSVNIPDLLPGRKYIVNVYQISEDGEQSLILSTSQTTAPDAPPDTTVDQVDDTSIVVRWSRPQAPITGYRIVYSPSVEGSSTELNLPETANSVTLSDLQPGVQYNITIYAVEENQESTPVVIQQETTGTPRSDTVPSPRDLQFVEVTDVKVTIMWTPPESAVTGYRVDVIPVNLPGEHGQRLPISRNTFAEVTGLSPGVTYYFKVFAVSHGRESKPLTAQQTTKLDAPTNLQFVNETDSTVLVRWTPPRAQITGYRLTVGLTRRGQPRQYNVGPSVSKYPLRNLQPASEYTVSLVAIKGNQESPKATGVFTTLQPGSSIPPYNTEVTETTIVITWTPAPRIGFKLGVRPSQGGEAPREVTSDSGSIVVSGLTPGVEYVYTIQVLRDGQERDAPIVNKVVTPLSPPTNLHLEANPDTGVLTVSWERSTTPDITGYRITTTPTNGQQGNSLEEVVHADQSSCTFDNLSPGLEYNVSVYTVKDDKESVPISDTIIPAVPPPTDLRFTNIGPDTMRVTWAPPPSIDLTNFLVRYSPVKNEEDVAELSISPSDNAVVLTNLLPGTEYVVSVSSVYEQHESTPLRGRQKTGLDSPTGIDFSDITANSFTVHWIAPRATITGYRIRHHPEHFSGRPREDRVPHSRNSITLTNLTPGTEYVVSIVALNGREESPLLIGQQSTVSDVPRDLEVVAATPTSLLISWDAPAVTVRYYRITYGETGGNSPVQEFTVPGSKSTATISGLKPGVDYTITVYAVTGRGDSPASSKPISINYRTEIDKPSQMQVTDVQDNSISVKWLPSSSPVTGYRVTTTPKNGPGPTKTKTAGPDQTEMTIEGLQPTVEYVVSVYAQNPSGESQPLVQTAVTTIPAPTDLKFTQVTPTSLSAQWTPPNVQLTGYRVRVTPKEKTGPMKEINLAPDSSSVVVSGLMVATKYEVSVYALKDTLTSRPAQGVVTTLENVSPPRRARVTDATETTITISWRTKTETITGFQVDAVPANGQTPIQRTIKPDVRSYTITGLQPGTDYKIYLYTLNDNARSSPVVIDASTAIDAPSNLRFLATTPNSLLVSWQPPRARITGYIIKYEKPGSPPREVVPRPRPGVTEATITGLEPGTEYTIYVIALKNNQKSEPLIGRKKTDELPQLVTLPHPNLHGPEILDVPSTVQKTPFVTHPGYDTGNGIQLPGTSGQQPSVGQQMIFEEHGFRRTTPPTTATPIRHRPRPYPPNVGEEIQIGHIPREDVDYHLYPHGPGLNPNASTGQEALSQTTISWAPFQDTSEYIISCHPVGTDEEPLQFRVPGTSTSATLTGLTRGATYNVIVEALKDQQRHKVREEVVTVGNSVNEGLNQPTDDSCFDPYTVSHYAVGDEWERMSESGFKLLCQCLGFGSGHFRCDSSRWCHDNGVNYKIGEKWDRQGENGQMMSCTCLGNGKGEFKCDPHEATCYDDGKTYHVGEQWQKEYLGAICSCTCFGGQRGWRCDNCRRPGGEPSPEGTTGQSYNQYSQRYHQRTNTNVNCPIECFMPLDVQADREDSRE

## recombinant human αvβ1 integrin extracellular domains (from UniProt P06756 1-992; P05556 1-728) (receptor)
[1]
  Integrin EC80 (batch dependent): 1.4 nM

## recombinant human αvβ3 integrin extracellular domains (from UniProt P06756 1-992; P05106 1-718) (receptor)
[2]
  Integrin EC80 (batch dependent): 3 nM

## recombinant human αvβ5 integrin extracellular domains (from UniProt P06756 1-992; P18084 1-719) (receptor)
[3]
  Integrin EC80 (batch dependent): 2.5 nM

## recombinant human αvβ6 integrin extracellular domains (from UniProt P06756 1-992; P18564 1-709) (receptor)
[4]
  Integrin EC80 (batch dependent): 0.1 nM

## recombinant human αvβ8 integrin extracellular domains (from UniProt P06756 1-992; P26012 1-684) (receptor)
[5]
  Integrin EC80 (batch dependent): 1 nM

## recombinant mouse α5β1 integrin extracellular domains (from UniProt P11688 1-999; P09055 1-728) (receptor)
[6]
  Integrin EC80 (batch dependent): 1 nM

## recombinant mouse αvβ1 integrin extracellular domains (from UniProt P43406 1-988; P09055 1-728) (receptor)
[7]
  Integrin EC80 (batch dependent): 4.3 nM

## recombinant mouse αvβ3 integrin extracellular domains (from UniProt P43406 1-988; O54890 1-717) (receptor)
[8]
  Integrin EC80 (batch dependent): 3 nM

## recombinant mouse αvβ5 integrin extracellular domains (from UniProt P43406 1-988; O70309 1-719) (receptor)
[9]
  Integrin EC80 (batch dependent): 0.6 nM

## recombinant mouse αvβ6 integrin extracellular domains (from UniProt P43406 1-988; Q9Z0T9 1-706) (receptor)
[10]
  Integrin EC80 (batch dependent): 1.4 nM

## recombinant mouse αvβ8 integrin extracellular domains (from UniProt P43406 1-988; Q0VBD0 1-679) (receptor)
[10]
  Integrin EC80 (batch dependent): 1 nM
